The results in this text go back to patent US20230002488A1 (SYSTIMMUNE, published 2023).

A word on the Kd: it is the concentration at which binding is half-saturated.

One assay concerns the target T1, human PD-L1 (human, UniProt Q9NZQ7 19-238).
T1 construct: Bought antigen; construct not described
As to the kind of experiment: BLI (Octet), GNC on AHC sensor, 100 nM antigen as analyte, 1:1 fit.

The next assay deals with T2, human 4-1BB (human, UniProt Q07011 24-186).
T2 construct: Bought antigen; construct not described
The assay is described as above.

Assay [1] has as its target T3, human CD19 (human, UniProt P15391 20-291).
T3 sequence (looked up): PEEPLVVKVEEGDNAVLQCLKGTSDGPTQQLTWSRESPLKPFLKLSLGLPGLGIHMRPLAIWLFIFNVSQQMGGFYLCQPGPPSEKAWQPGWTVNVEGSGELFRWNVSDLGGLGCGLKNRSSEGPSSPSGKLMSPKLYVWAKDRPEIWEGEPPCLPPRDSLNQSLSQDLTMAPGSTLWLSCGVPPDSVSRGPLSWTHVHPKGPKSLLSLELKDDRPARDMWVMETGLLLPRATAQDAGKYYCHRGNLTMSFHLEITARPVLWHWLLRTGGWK
Described as above.

A further assay concerns the target HER3 on BxPC3 cells (human, UniProt P21860 20-1342). Nature of the assay: cell-based or functional assay.
Assay [2] deals with T3, human CD19. As to the kind of experiment: BLI (Octet), GNC on AHC sensor; strong binding, dissociation too slow to quantify KD. Background: BLI is a label-free optical method that tracks binding on a fibre tip over time.
A further assay concerns the target T4, SI-49P7.
T4 construct: Antibody-like penta-GNC protein; NKG2D at D2, 4-1BBL trimer at D4; D1 CD3, D3 PD-L1, D6 CD19; also called αCD3×NKG2D×αPD-L1×41BBL trimer×αCD19
As to the kind of experiment: BLI (Octet), biotinylated MICA on SA tips, GNC protein 0-100 nM as analyte.

Another assay deals with human ROR1 (human, UniProt Q01973 30-403, limits assumed). Nature of the assay: BLI (Octet), GNC on AHC sensor, 100 nM antigen as analyte, 1:1 fit.
For another assay, the target named is EGFRvIII (human, UniProt P00533 25-645, limits assumed). Described as above.
Another assay has as its target T5, human EGFR (human, UniProt P00533 25-645).
T5 construct: also called huEGFR; His-tagged human EGFR
As to the kind of experiment: BLI (Octet), GNC on AHC sensor, His-tagged human EGFR as analyte, global 1:1 fit.

B1: SI-38P13 (antibody, human IgG1, kappa)
heavy: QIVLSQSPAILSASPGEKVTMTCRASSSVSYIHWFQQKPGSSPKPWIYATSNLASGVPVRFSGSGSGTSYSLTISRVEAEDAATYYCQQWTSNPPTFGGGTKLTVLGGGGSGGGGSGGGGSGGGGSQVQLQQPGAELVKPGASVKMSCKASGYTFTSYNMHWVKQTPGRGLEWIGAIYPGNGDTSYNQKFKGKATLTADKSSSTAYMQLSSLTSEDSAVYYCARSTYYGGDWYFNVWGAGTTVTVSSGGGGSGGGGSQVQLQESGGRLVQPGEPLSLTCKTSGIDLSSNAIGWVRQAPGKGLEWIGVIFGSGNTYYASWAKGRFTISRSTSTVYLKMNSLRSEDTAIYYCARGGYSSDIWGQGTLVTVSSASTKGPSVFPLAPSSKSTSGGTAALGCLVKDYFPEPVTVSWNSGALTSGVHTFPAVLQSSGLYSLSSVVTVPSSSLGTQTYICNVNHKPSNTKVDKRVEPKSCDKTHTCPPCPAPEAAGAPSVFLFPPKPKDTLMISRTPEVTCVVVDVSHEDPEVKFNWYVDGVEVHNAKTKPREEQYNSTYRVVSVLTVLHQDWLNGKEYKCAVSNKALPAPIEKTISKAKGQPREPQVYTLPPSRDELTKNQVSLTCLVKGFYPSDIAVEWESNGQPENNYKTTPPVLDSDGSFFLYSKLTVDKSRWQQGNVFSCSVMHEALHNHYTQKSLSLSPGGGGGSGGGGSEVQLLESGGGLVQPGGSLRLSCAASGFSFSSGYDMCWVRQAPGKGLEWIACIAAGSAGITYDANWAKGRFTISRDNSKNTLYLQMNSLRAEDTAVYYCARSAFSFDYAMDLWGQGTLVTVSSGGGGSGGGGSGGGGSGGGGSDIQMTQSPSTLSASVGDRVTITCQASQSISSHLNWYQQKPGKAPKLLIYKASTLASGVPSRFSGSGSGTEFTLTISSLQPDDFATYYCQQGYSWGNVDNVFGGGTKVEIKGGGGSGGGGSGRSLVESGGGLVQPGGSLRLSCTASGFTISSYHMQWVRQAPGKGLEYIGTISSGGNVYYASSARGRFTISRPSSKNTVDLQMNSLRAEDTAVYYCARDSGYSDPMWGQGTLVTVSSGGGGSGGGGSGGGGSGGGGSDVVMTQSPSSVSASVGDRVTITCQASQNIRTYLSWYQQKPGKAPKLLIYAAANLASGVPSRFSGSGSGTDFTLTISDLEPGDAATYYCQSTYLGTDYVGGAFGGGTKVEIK
light: DPVLTQSPSSLSASVGDRVTISCQSSQSVAKNNNLAWFQQKPGQAPKLLIYSASTLAAGVPSRFSGSGSGTDFTLTISSVQPEDFATYYCSARDSGNIQSFGGGTKVEIKRTVAAPSVFIFPPSDEQLKSGTASVVCLLNNFYPREAKVQWKVDNALQSGNSQESVTEQDSKDSTYSLSSTLTLSKADYEKHKVYACEVTHQGLSSPVTKSFNRGECGGGGSGGGGSGGGGSQVTLKESGPGLVQPGQTLRLTCAFSGFSLSTSGMGVGWIRQPPGKGLEWLAHIWWDDDKRYNPALKSRLTISKDTSKNQVYLQMNSLDAEDTAVYYCARMELWSYYFDYWGQGTLVTVSSGGGGSGGGGSGGGGSGGGGSENVLTQSPASLSASPGERVTITCSASSSVSYMHWYQQKPGQAPKLWIYDTSKLASGVPSRFSGSGSGNDHTLTISSMEPEDFATYYCFQGSVYPFTFGQGTKVTVL
In the case of B1, the dissociation constant Kd turned out to be 0.731 nM in the assay with human PD-L1, 8.54 nM with human 4-1BB and 0.181 nM in the assay with human CD19 [1].

B2: SI-38P12 (antibody, human IgG1, kappa)
heavy: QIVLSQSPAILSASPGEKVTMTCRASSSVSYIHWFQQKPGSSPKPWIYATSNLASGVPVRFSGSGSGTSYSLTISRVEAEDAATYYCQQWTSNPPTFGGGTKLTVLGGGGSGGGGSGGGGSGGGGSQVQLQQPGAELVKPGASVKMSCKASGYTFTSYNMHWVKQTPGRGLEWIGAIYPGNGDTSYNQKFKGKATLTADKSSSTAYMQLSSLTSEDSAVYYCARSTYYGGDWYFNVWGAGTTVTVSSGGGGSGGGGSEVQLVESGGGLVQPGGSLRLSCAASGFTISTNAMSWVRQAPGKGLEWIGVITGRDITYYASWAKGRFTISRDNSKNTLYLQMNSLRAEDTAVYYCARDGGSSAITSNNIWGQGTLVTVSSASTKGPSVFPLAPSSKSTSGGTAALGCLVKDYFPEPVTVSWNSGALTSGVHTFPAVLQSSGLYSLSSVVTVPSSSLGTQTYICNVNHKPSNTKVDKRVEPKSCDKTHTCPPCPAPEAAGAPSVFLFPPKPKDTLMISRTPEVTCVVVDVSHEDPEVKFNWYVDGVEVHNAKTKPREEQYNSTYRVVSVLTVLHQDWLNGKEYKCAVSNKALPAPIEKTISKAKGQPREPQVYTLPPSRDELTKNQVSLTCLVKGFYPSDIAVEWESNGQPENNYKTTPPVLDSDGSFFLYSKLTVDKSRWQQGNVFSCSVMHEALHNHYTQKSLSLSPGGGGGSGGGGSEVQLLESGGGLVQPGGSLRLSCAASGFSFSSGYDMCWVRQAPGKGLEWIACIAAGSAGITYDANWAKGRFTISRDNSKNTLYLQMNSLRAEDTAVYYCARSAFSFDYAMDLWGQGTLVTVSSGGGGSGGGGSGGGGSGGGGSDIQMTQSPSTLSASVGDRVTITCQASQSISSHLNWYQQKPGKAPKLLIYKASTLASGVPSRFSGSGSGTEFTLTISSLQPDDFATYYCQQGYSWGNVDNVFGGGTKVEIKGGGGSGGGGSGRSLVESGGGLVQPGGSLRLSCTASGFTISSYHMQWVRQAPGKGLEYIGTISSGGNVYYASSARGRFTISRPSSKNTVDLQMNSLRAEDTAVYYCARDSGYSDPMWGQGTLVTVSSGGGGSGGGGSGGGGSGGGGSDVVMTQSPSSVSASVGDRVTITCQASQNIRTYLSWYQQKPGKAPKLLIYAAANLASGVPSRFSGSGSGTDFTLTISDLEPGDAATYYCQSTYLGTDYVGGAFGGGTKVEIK
light: ENVLTQSPASLSASPGERVTITCSASSSVSYMHWYQQKPGQAPKLWIYDTSKLASGVPSRFSGSGSGNDHTLTISSMEPEDFATYYCFQGSVYPFTFGQGTKVTVLGGGGSGGGGSGGGGSGGGGSQVTLKESGPGLVQPGQTLRLTCAFSGFSLSTSGMGVGWIRQPPGKGLEWLAHIWWDDDKRYNPALKSRLTISKDTSKNQVYLQMNSLDAEDTAVYYCARMELWSYYFDYWGQGTLVTVSSGGGGSGGGGSDVVMTQSPSTLSASVGDRVTINCQASESISSWLAWYQQKPGKAPKLLIYEASKLASGVPSRFSGSGSGTEFTLTISSLQPDDFATYYCQGYFYFISRTYVNSFGGGTKVEIKRTVAAPSVFIFPPSDEQLKSGTASVVCLLNNFYPREAKVQWKVDNALQSGNSQESVTEQDSKDSTYSLSSTLTLSKADYEKHKVYACEVTHQGLSSPVTKSFNRGEC
B2: the Kd with human PD-L1 is 0.195 nM; with human 4-1BB, 4.85 nM; with human CD19 [1] it was 1.11 nM.

B3: SI-55H11 (antibody, human IgG1, kappa)
heavy: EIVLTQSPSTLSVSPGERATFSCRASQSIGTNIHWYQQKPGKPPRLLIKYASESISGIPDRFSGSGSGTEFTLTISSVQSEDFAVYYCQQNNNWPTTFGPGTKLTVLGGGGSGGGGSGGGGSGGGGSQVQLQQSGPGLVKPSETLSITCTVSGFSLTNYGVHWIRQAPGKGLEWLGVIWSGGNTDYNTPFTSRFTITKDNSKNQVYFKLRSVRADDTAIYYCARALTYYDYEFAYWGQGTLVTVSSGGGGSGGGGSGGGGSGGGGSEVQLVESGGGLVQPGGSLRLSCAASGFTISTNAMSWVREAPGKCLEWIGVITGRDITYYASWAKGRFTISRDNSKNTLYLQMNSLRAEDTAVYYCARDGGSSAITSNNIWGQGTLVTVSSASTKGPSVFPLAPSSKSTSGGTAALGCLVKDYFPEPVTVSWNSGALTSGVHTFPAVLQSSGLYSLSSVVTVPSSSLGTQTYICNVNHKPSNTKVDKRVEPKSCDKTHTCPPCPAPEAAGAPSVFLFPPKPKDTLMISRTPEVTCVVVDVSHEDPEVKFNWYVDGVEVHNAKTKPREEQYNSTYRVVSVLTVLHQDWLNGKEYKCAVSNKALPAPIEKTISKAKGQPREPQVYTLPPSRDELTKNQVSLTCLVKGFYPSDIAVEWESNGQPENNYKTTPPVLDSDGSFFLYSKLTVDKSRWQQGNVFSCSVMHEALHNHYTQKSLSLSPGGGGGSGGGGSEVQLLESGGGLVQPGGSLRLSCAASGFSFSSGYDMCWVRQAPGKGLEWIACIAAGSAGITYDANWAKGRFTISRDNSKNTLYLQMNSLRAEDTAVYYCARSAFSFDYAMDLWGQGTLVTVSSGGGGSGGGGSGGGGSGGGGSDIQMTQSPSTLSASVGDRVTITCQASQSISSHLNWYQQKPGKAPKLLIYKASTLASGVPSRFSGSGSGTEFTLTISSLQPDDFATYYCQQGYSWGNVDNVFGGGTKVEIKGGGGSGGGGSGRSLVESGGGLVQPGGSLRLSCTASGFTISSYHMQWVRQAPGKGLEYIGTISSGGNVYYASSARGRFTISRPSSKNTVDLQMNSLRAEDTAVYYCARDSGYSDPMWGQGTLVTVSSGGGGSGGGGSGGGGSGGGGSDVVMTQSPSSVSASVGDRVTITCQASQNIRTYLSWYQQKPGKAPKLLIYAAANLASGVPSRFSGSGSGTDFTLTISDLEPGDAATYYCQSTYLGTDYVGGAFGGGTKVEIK
light: ENVLTQSPASLSASPGERVTITCSASSSVSYMHWYQQKPGQAPKLWIYDTSKLASGVPSRFSGSGSGNDHTLTISSMEPEDFATYYCFQGSVYPFTFGQGTKVTVLGGGGSGGGGSGGGGSGGGGSQVTLKESGPGLVQPGQTLSLTCAFSGFSLSTSGMGVGWIRQPPGKGLEWLAHIWWDDDKRYNPALKSRLTISKDTSKNQVYLQMNSLDAEDTAVYYCARMELWSYYFDYWGQGTLVTVSSGGGGSGGGGSDVVMTQSPSTLSASVGDRVTINCQASESISSWLAWYQQKPGKAPKLLIYEASKLASGVPSRFSGSGSGTEFTLTISSLQPDDFATYYCQGYFYFISRTYVNSFGCGTKVEIKRTVAAPSVFIFPPSDEQLKSGTASVVCLLNNFYPREAKVQWKVDNALQSGNSQESVTEQDSKDSTYSLSSTLTLSKADYEKHKVYACEVTHQGLSSPVTKSFNRGECGGGGSGGGGSGGGGSQSALTQPASVSGSPGQSITISCTGTSSDVGGYNFVSWYQQHPGKAPKLMIYDVSDRPSGVSDRFSGSKSGNTASLIISGLQADDEADYYCSSYGSSSTHVIFGGGTKVTVLGGGGSGGGGSGGGGSGGGGSQVQLQESGGGLVKPGGSLSLSCAASGFTFSSYWMSWVRQAPGKGLEWVANINRDGSASYYVDSVKGRFTISRDDAKNSLYLQMNSLRAEDTAVYYCARDRGVGYFDLWGRGTLVTVSS
notes: also called hexa-GNC antibody SI-55H11
On to B3, for which the results for the Kd with human PD-L1, with human 4-1BB and with human CD19 [1] were 0.737 nM, 4.91 nM and 6.8 nM, respectively. For the same molecule, in the assay with HER3 on BxPC3 cells, the “TDCC EC50 (pM), BxPC3 target cells” value was 0.0939 pM.

B4: SI-55H12 (antibody, human IgG1, kappa)
heavy: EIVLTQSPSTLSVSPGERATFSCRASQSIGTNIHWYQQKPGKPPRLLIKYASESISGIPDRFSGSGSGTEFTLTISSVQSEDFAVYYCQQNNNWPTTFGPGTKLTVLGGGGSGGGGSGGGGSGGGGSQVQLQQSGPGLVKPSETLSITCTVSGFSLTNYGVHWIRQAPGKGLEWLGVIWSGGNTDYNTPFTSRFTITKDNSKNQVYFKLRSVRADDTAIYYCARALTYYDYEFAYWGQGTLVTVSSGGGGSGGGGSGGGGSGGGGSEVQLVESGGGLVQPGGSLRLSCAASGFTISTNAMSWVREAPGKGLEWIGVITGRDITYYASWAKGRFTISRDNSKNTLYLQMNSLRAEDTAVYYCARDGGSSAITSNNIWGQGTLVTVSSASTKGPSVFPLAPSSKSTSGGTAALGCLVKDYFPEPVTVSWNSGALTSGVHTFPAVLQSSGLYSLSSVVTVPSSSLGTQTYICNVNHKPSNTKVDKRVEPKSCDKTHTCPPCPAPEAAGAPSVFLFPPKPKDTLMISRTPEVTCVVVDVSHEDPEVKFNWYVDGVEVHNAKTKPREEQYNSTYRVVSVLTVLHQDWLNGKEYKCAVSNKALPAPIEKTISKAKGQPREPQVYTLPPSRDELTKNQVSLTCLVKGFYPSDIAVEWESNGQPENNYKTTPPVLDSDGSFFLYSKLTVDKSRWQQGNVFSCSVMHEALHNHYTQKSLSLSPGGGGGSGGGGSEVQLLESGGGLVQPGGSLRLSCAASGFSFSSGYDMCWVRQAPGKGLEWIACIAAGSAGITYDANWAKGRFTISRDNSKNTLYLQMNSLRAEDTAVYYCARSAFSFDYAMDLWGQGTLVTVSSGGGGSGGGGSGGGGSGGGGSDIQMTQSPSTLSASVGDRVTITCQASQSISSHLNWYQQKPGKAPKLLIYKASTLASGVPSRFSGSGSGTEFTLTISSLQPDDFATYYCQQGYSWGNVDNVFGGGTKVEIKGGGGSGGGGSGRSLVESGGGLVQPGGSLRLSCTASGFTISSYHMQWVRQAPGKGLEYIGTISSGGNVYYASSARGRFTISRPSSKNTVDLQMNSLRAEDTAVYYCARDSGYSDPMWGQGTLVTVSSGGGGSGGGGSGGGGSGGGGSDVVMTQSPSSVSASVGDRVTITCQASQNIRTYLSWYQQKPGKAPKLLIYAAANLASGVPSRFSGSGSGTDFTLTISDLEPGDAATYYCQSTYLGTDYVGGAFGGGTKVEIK
light: ENVLTQSPASLSASPGERVTITCSASSSVSYMHWYQQKPGQAPKLWIYDTSKLASGVPSRFSGSGSGNDHTLTISSMEPEDFATYYCFQGSVYPFTFGQGTKVTVLGGGGSGGGGSGGGGSGGGGSQVTLKESGPGLVQPGQTLSLTCAFSGFSLSTSGMGVGWIRQPPGKGLEWLAHIWWDDDKRYNPALKSRLTISKDTSKNQVYLQMNSLDAEDTAVYYCARMELWSYYFDYWGQGTLVTVSSGGGGSGGGGSDVVMTQSPSTLSASVGDRVTINCQASESISSWLAWYQQKPGKAPKLLIYEASKLASGVPSRFSGSGSGTEFTLTISSLQPDDFATYYCQGYFYFISRTYVNSFGGGTKVEIKRTVAAPSVFIFPPSDEQLKSGTASVVCLLNNFYPREAKVQWKVDNALQSGNSQESVTEQDSKDSTYSLSSTLTLSKADYEKHKVYACEVTHQGLSSPVTKSFNRGECGGGGSGGGGSGGGGSQSALTQPASVSGSPGQSITISCTGTSSDVGGYNFVSWYQQHPGKAPKLMIYDVSDRPSGVSDRFSGSKSGNTASLIISGLQADDEADYYCSSYGSSSTHVIFGGGTKVTVLGGGGSGGGGSGGGGSGGGGSQVQLQESGGGLVKPGGSLSLSCAASGFTFSSYWMSWVRQAPGKGLEWVANINRDGSASYYVDSVKGRFTISRDDAKNSLYLQMNSLRAEDTAVYYCARDRGVGYFDLWGRGTLVTVSS
Take B4: in the assay with human CD19 [2], the binding result was “binds”. The Kd with human PD-L1 was determined as 0.25 nM; with human 4-1BB, 7.87 nM.

B5: SI-38E17 (antibody, V domains shown)
VH: EVQLVESGGGLVQPGGSLRLSCAASGFTISTNAMSWVRQAPGKGLEWIGVITGRDITYYASWAKGRFTISRDNSKNTLYLQMNSLRAEDTAVYYCARDGGSSAITSNNIWGQGTLVTVSS
VL: AIQLTQSPSSLSASVGDRVTITCRASQGISSALAWYQQKPGKAPKLLIYDASSLESGVPSRFSGSGSGTDFTLTISSLQPEDFATYYCQQFNSYPFTFGPGTKVDIK
Take B5: the dissociation constant (Kd) with human PD-L1 amounted to 0.524 nM; with human 4-1BB, 8.19 nM; in the assay with human CD19 [1], 1.48 nM.

B6: biotinylated human MICA (ligand, UniProt Q29983 24-308, looked up)
chain: EPHSLRYNLTVLSWDGSVQSGFLTEVHLDGQPFLRCDRQKCRAKPQGQWAEDVLGNKTWDRETRDLTGNGKDLRMTLAHIKDQKEGLHSLQEIRVCEIHEDNSTRSSQHFYYDGELFLSQNLETKEWTMPQSSRAQTLAMNVRNFLKEDAMKTKTHYHAMHADCLQELRRYLKSGVVLRRTVPPMVNVTRSEASEGNITVTCRASGFYPWNITLSWRQDGVSLSHDTQQWGDVLPDGNGTYQTWVATRICQGEEQRFTCYMEHSGNHSTHPVPSGKVLVLQSHWQ
modifications: biotinylated (site not stated)
notes: Loaded on SA tips as ligand for SI-49P6 and SI-49P7
B6 returned a Kd with SI-49P7 of 10.7 nM.

B7: SI-35E20 (antibody)
chain 1: not shown
chain 2: AYDMTQSPSSVSASVGDRVTIKCQASEDIYSFLAWYQQKPGKAPKLLIHSASSLASGVPSRFSGSGSGTDFTLTISSLQPEDFATYYCQQGYGKNNVDNAFGGGTKVEIKRTVAAPSVFIFPPSDEQLKSGTASVVCLLNNFYPREAKVQWKVDNALQSGNSQESVTEQDSKDSTYSLSSTLTLSKADYEKHKVYACEVTHQGLSSPVTKSFNRGEC
Consider B7, for which the dissociation constant (Kd) in the assay with human PD-L1 was 0.379 nM; in the assay with human 4-1BB, 4.03 nM; with human ROR1, 0.861 nM.

B8: SI-39E18 (antibody)
chain 1: not shown
chain 2: DILMTQSPSSMSVSLGDTVSITCHSSQDINSNIGWLQQRPGKSFKGLIYHGTNLDDEVPSRFSGSGSGADYSLTISSLESEDFADYYCVQYAQFPWTFGGGTKLEIKRTVAAPSVFIFPPSDEQLKSGTASVVCLLNNFYPREAKVQWKVDNALQSGNSQESVTEQDSKDSTYSLSSTLTLSKADYEKHKVYACEVTHQGLSSPVTKSFNRGEC
In the case of B8, the values for the dissociation constant Kd with EGFRvIII, with human PD-L1 and in the assay with human 4-1BB were 16.4 nM, 0.421 nM and 18.1 nM, respectively.

B9: SI-55P3 (antibody, human IgG1, kappa)
heavy: not shown
light: ENVLTQSPASLSASPGERVTITCSASSSVSYMHWYQQKPGQAPKLWIYDTSKLASGVPSRFSGSGSGNDHTLTISSMEPEDFATYYCFQGSVYPFTFGQGTKVTVLGGGGSGGGGSGGGGSGGGGSQVTLKESGPGLVQPGQTLRLTCAFSGFSLSTSGMGVGWIRQPPGKGLEWLAHIWWDDDKRYNPALKSRLTISKDTSKNQVYLQMNSLDAEDTAVYYCARMELWSYYFDYWGQGTLVTVSSGGGGSGGGGSDPVLTQSPSSLSASVGDRVTISCQSSQSVAKNNNLAWFQQKPGQAPKLLIYSASTLAAGVPSRFSGSGSGTDFTLTISSVQPEDFATYYCSARDSGNIQSFGGGTKVEIKRTVAAPSVFIFPPSDEQLKSGTASVVCLLNNFYPREAKVQWKVDNALQSGNSQESVTEQDSKDSTYSLSSTLTLSKADYEKHKVYACEVTHQGLSSPVTKSFNRGEC
notes: Penta-specific: D1 humanized anti-EGFR H1 scFv, D2 CD3, D3 PD-L1, D4 4-1BB, D6 CD19
In the assay with human EGFR, B9 came in with a Kd of 18.1 nM.

B10: SI-79P2 (antibody, human IgG1, kappa)
heavy: not shown
light: ENVLTQSPASLSASPGERVTITCSASSSVSYMHWYQQKPGQAPKLWIYDTSKLASGVPSRFSGSGSGNDHTLTISSMEPEDFATYYCFQGSVYPFTFGQGTKVTVLGGGGSGGGGSGGGGSGGGGSQVTLKESGPGLVQPGQTLRLTCAFSGFSLSTSGMGVGWIRQPPGKGLEWLAHIWWDDDKRYNPALKSRLTISKDTSKNQVYLQMNSLDAEDTAVYYCARMELWSYYFDYWGQGTLVTVSSGGGGSGGGGSDPVLTQSPSSLSASVGDRVTISCQSSQSVAKNNNLAWFQQKPGQAPKLLIYSASTLAAGVPSRFSGSGSGTDFTLTISSVQPEDFATYYCSARDSGNIQSFGGGTKVEIKRTVAAPSVFIFPPSDEQLKSGTASVVCLLNNFYPREAKVQWKVDNALQSGNSQESVTEQDSKDSTYSLSSTLTLSKADYEKHKVYACEVTHQGLSSPVTKSFNRGEC
notes: Penta-specific: D1 humanized anti-EGFR H4 scFv, D2 CD3, D3 PD-L1, D4 4-1BB, D6 CD19
B10 returned a Kd in the assay with human EGFR of 4.3 nM.
